Values of other authors in article PMC3273586 (International Journal of Pharmaceutics, 2011).

Conditions: solution stored for 20 h at room temperature; ref Dijkhuizen-Radersma et al., 2002

## calcitonin
  aggregation of solution on storage: early onset of aggregation
